Test results taken from patent US20160215041A1.

Key:
[1] = target: Anti-P. aeruginosa O6ad scFv, c-myc- and 6× His-tagged (human); assay: ELISA: anti-O6ad scFv coated, two-fold dilutions of anti-tag IgG, goat anti-mouse IgG-HRP
[2] = target: Anti-P. aeruginosa O6ad Fab, c-myc- and 6× His-tagged (human); assay: ELISA, rAb coated, anti-tag IgG titrated (FIG. 7)
[3] = target: Anti-P. aeruginosa O6ad scFv, c-myc- and 6× His-tagged (human); assay: ELISA, rAb coated, anti-tag IgG titrated (FIG. 7)
[4] = target: Anti-P. aeruginosa O6ad Fab, c-myc- and 6× His-tagged (human); assay: cell-based or functional assay
[5] = target: Anti-P. aeruginosa O6ad scFv, c-myc- and 6× His-tagged (human); assay: cell-based or functional assay
[6] = target: Anti-P. aeruginosa O6ad Fab, c-myc- and 6× His-tagged (human); assay: ELISA: anti-O6ad Fab coated, two-fold dilutions of anti-tag IgG, goat anti-mouse IgG-HRP
[7] = target: Human complement C1q (human) (UniProt P02745); assay: C1q deposition ELISA, anti-tag IgG alone at 66.67 nM
UniProt P02745, sequence (P02745 23-245 limits assumed, chain 1 of 3): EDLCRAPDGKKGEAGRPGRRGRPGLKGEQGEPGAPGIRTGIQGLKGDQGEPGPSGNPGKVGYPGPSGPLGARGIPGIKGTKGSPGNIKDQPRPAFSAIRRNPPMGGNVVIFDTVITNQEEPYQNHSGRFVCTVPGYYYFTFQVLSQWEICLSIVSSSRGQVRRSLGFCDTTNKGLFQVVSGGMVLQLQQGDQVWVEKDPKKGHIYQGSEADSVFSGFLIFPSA
UniProt P02745, sequence (P02746 28-253 limits assumed, chain 2 of 3, further chain): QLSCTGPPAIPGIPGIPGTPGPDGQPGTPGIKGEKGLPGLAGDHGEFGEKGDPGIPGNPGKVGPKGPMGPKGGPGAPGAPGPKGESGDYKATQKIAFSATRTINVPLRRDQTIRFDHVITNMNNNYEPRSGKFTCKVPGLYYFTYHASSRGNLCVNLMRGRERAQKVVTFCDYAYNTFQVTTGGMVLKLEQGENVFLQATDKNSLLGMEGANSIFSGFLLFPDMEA
UniProt P02745, sequence (P02747 29-245 limits assumed, chain 3 of 3, further chain): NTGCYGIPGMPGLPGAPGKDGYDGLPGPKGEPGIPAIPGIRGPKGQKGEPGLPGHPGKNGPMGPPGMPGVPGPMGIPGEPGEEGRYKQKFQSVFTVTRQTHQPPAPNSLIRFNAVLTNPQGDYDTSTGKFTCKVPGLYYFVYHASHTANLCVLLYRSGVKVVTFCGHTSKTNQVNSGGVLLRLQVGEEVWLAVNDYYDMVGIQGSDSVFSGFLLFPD

| Substance | EC50 (read off the curve) [1] [nM] | fold binding relative to 9E10 [2] [fold] | fold binding relative to 9E10 [3] [fold] | % phagocytosed bacteria (P. aeruginosa O6ad, J774.1A) [4] [%] | fold increase of bacterial uptake over the control without antibodies, at 13.09 nM anti-tag IgG [4] [fold] | fold phagocytosis relative to Fab-9E10 [4] [fold] | % phagocytosed bacteria (P. aeruginosa O6ad, J774.1A) [5] [%] | fold increase of bacterial uptake over the control without antibodies, at 13.09 nM anti-tag IgG [5] [fold] | fold phagocytosis relative to scFv-9E10 [5] [fold] | EC50 (read off the curve) [6] [nM] | fold C1q deposition relative to Penta-His [7] [fold] |
| --- | --- | --- | --- | --- | --- | --- | --- | --- | --- | --- | --- |
| Anti-Penta-His IgG1 murine mAb (QIAgen) (antibody) | 1 | < 10 | < 10 | 27 | 3.5 | > 1.2 | 42 | 10.6 | 2 | 1 |  |
| Murine mAb 9E10 (anti-c-myc IgG1) from hybridoma 1-9E10.2 (ATCC CRL-1729) (antibody) |  |  |  | 18.8 | 3.5 |  | 24.8 | 4.6 |  |  | 1.4 |
